Laboratory results: patent US20210107971A1 (UCB, published 2021)
No end group written: not given here.

T1: biotinylated peptide corresponding to residues 117 to 126 of human alpha synuclein (peptide PVDPDNEAYE) (human, also: biotinylated, site not given here)
T1 construct: Captured on streptavidin plates for ELISA
T1 peptide: PVDPDNEAYE


What was measured:
[1] = biological target: T2, monoclonal 6470 rabbit Fab; assay: competitive SPR (Biacore 3000): 1 µM peptide with 50 nM Fab; competitor immobilised human alpha synuclein monomer
T2 construct: Fab heavy chain entry carries a C-terminal His tag
Experimental: (§1) Recombinant human alpha synuclein monomer and pre-formed alpha synuclein fibrils were immobilized on a CM5 chip using a Biacore 3000 instrument (GE Healthcare). Following activation of the carboxymethyl dextran surface by injection of 100 μl of a fresh 1:1 (v/v) mixture of 50 mM N-hydroxysuccimide and 200 mM 1-ethyl-3-(3-dimethylaminopropyl)-carbodiimide at a flow rate of 10 μl/min HBS-EP (GE Healthcare) as running buffer, coupling was achieved by injecting 100 μl of monomer and fibrils, at 5 μM in 10 mM acetate pH 5.0, over separate flow cells. A reference flow cell was activated in the same manner and then all flow cell surfaces were deactivated with a 50 μl pulse of 1 M ethanolamine HCl pH 8.5.
(§2) Peptide solutions were prepared in running buffer at 100 μM and a peptide blank control prepared as a 1 in 100 dilution of DMSO in running buffer. […] Sensograms were recorded for each sample by injecting 30 μl of the mixture at 10 μl/min and recording a report point 5 seconds before the end of the injection. […] Control cycles were alternated with peptide cycles.

[2] = biological target: T2, monoclonal 6470 rabbit Fab; assay: competitive SPR (Biacore 3000): 1 µM peptide with 50 nM Fab; competitor immobilised human alpha synuclein fibrils
Experimental: as §1, §2

[3] = biological target: T1, biotinylated peptide corresponding to …; assay: streptavidin-capture ELISA on biotinylated peptide PVDPDNEAYE, HRP anti-rabbit IgG Fc, TMB, OD 630 nm
Experimental: Purified antibodies were then subject to further screening by ELISA. […] Plates were blocked with 1% w/v PEG/PBS and then incubated with several dilutions of purified transient supernatant. Secondary HRP-conjugated goat anti-rabbit IgG Fc antibody (Stratech Scientific Ltd/Jackson ImmunoResearch) was added to plates, followed by visualization of binding with TMB substrate (3,3′,5,5′-Tetramethylbenzidine, from EMD Millipore; 10 μl/well).

[4] = biological target: T3, human beta synuclein (rPeptide) (human, UniProt Q16143 1-134); assay: Western blot, 1 microgram synuclein
T3 construct: also called rPeptide beta synuclein
T3 sequence (Q16143 whole entry): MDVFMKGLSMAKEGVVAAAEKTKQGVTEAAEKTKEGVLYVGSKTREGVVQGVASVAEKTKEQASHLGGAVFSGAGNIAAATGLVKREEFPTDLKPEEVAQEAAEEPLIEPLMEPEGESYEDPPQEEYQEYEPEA
Experimental: The binding of antibodies raised against human alpha synuclein to human beta synuclein were tested by Western blot using rPeptide beta synuclein. […] The membrane was blocked in PBS with 3% BSA and 0.1% Tween20. […] The blot was washed extensively in PBS with 0.1% Tween20, PBS and water. Chemi-luminescence was measured after addition of ECL Western blot substrate (Pierce).

[5] = biological target: T4, purified recombinant human alpha synuclein fibrils (human, UniProt P37840 1-140); assay: affinity for human alpha synuclein fibrils, IgG4P; method not given; Table 6 humanization screen, separate from Table 7B
[6] = biological target: T4, purified recombinant human alpha …; assay: SPR, Biacore T200, as in Example 3; full-length IgG4P injected; human fibril
[7] = biological target: T4, purified recombinant human alpha …; assay: cell-based or functional assay
[8] = biological target: T5, recombinant full-length human alpha synuclein monomer (human, UniProt P37840 1-140); assay: SPR, Biacore T200, as in Example 3; full-length IgG4P injected
Experimental: (§3) Interaction kinetics were determined by using surface plasmon resonance technology on a Biacore T200 instrument. Three different ligands including recombinant full-length human alpha synuclein monomer, purified recombinant human alpha synuclein fibrils, and purified recombinant mouse alpha synuclein fibrils, prepared as described herein, were each immobilized on three different flow cells of a CM5 chip surface using amine-coupling chemistry. The three ligands were prepared in 10 mM NaAc, pH 3.5, and immobilized onto separate flow cell surfaces to reach an immobilization level of about 30 response units (RU) for alpha synuclein monomer, about 40 RU for human alpha synuclein fibrils, and about 300 RU for mouse alpha synuclein fibrils respectively, at a flow rate of 10 μI/min. The buffer HBS-EP+(GE healthcare Bio-Sciences AB) was used as running buffer for both ligand immobilization and kinetics assay. […] The surface was regenerated by one injection of 50 mM HCl for 90 s at 10 μI/min, and another injection of 50 mM HCl for 60 s at 10 μI/min. The data were analyzed using the Biacore T200 evaluation software (version 3.0) using the bivalent analyte model with assumed no bulk contribution (RI=0) and global Rmax for IgG format, and 1:1 model with flexible bulk contribution (local RI) and global Rmax.

[9] = biological target: T4, purified recombinant human alpha …; assay: as above
Experimental: as §3

[10] = biological target: T5, recombinant full-length human alpha …; assay: SPR, Biacore T200, as in Example 3; full-length IgG4P injected; human monomer
Experimental: as §3

[11] = biological target: purified recombinant human alpha synuclein fibrils (human, UniProt P37840 1-140); assay: affinity for human alpha synuclein fibrils, IgG4P; method not given
[12] = biological target: T4, purified recombinant human alpha …; assay: cell-based or functional assay; remark: listed apart in the source
[13] = biological target: T5, recombinant full-length human alpha …; assay: kinetics table of Example 9 (method not named there; same values as Table 7B, SPR)
[14] = biological target: T4, purified recombinant human alpha …; assay: as above
[15] = biological target: T4, purified recombinant human alpha …; assay: affinity for human alpha synuclein fibrils, IgG4P; method not given; remark: listed apart in the source

% inhibition [1] [%]	% inhibition [2] [%]	IC50, inhibition of alpha synuclein aggregation induced by fibrils in HEK293F cells expressing alpha synuclein (% pSer129+ cells) [7] [nM]	koff [8] [s⁻¹]	kon [8] [M⁻¹ s⁻¹]	koff [9] [s⁻¹]	kon [9] [M⁻¹ s⁻¹]	Binder	other results
37	54	–	–	–	–	–	Ac-EAYEMPSEEG-NH2 (Synthetic peptide of human alpha synuclein) [AS123-132]	–
34	52	–	–	–	–	–	Ac-YEMPSEEGYQ-NH2 (Synthetic peptide of human alpha synuclein) [AS125-134]	–
–	–	< 5	0.00594	3.48e+06	0.000116	2.07e+06	VR6470 gL3-N33R; gH23-S56N-N102H (antibody, human IgG4 S228P, kappa, V domains shown, Full-length humanized human IgG4P) VH: EVQLLESGGGLVQPGGSLRLSCAVSGIDLSSHDMYWVRQAPGKGLEYIGAIYASGNTYYASWAKGRFTISRDNSKNTVYLQMNSLRAEDTAVYYCARIHYGHSGGLWGQGTLVTVSS VL: DIQMTQSPSSLSASVGDRVTITCQASQSVYKNRYLAWFQQKPGKAPKQLIYGASTLASGVPSRFSGSGSGTQFTLTISSLQPEDFATYYCAGYKGGRNDGFAFGGGTKVEIKR	Kd [8]: 1.71 nM; Kd [9]: 0.056 nM

More lines, now with the values behind:

Binder	% inhibition [1] [%]	% inhibition [2] [%]	IC50, inhibition of alpha synuclein aggregation induced by fibrils in HEK293F cells expressing alpha synuclein (% pSer129+ cells) [7] [nM]	koff [8] [s⁻¹]	kon [8] [M⁻¹ s⁻¹]	koff [9] [s⁻¹]	kon [9] [M⁻¹ s⁻¹]	other results
Ac-DNEAYEMPSE-NH2 (Synthetic peptide of human alpha synuclein) [AS121-130]	20	27	–	–	–	–	–	–
monoclonal 6470 rabbit IgG1 (antibody, V domains shown, Recombinant rabbit IgG1/kappa expressed in Expi293 cells) VH: QSVEESGGRLVTPGTPLTLTCTVSGIDLSSHDMYWVRQAPGKGLEYIGAIYASGSTYYASWAKGRFTISKTSTTVDLKMTSLTTEDTATYFCARIHYGNSGGLWGQGTLVTVSS VL: AIVMTQTPSSKSVAVGDTVTINCQASQSVYKNNYLAWFQQKPGQPPKQLIYGASTLASGVPSRFKGSGSGTQFTLTISDVVCDDAATYYCAGYKGGRNDGFAFGGGTEVVVKR	–	–	–	–	–	–	–	binding result [3]: no binding; binding result [4]: no binding
6470gL3gH23 IgG4P (antibody, V domains shown, Full-length humanized human IgG4P; also called VR6470 gL3) VH: EVQLLESGGGLVQPGGSLRLSCAVSGIDLSSHDMYWVRQAPGKGLEYIGAIYASGSTYYASWAKGRFTISRDNSKNTVYLQMNSLRAEDTAVYYCARIHYGNSGGLWGQGTLVTVSS VL: DIQMTQSPSSLSASVGDRVTITCQASQSVYKNNYLAWFQQKPGKAPKQLIYGASTLASGVPSRFSGSGSGTQFTLTISSLQPEDFATYYCAGYKGGRNDGFAFGGGTKVEIKR	–	–	< 5	0.0242	1.2e+06	0.000142	855000	Kd [5]: 0.148 nM; Kd [6]: 0.166 nM; Kd [10]: 20.1 nM
6470gL3gH25 (antibody, V domains shown) VH: EVQLLESGGGLVQPGGSLRLSCAVSGIDLSSHDMYWVRQAPGKGLEWIGAIYASGSTYYASWAKGRFTISKDSSKNTVYLQMNSLRAEDTAVYYCARIHYGNSGGLWGQGTLVTVSS VL: DIQMTQSPSSLSASVGDRVTITCQASQSVYKNNYLAWFQQKPGKAPKQLIYGASTLASGVPSRFSGSGSGTQFTLTISSLQPEDFATYYCAGYKGGRNDGFAFGGGTKVEIKR	–	–	–	–	–	–	–	Kd [11]: 76 nM
6470gL3gH36 IgG4P (antibody, V domains shown, Full-length humanized human IgG4P; also called VR6470 gL3; VR6470) VH: EVQLLESGGGLVQPGGSLRLSCAVSGIDLSSHDMYWVRQAPGKGLEYIGAIYASGSTYYASWAKGRFTISRDSSKNTLYLQMNSLRAEDTAVYYCARIHYGNSGGLWGQGTLVTVSS VL: DIQMTQSPSSLSASVGDRVTITCQASQSVYKNNYLAWFQQKPGKAPKQLIYGASTLASGVPSRFSGSGSGTQFTLTISSLQPEDFATYYCAGYKGGRNDGFAFGGGTKVEIKR	–	–	< 5	0.0174	1.15e+06	0.000317	1.07e+06	IC50 (nM), HEK cell-based aggregation assay [12]: < 5 nM; Kd [13]: 15.1 nM; koff [13]: 0.0174 s⁻¹; kon [13]: 1.15e+06 M⁻¹ s⁻¹; Kd [14]: 0.298 nM; koff [14]: 0.000317 s⁻¹; kon [14]: 1.07e+06 M⁻¹ s⁻¹; Kd [15]: 0.166 nM; IC50, inhibition of alpha synuclein aggregation induced by fibrils on mouse primary neurons (pSer129 alpha synuclein signal) [7]: < 4 nM; Kd [8]: 15.1 nM; Kd [9]: 0.298 nM
